Experimental findings from patent US20250296996A1 (BROADWING BIO, published 2025) are described below.

One test deals with T1, P66 (rabbit ANGPTL7-his) (rabbit, UniProt G1T4P1 27-344).
T1 construct: mature; also called rabbit ANGPTL7 protein
T1 sequence: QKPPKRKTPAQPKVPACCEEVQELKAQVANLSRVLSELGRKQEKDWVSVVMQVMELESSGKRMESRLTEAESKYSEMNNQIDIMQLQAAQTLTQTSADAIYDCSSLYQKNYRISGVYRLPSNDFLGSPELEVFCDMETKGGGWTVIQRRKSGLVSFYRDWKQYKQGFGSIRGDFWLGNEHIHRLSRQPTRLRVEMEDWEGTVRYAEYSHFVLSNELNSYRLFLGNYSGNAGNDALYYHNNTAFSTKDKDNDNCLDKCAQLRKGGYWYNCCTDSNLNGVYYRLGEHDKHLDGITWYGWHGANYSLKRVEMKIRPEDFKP
The experiment in a line: BLI Octet HTX; IgG on AHC sensor; P66 at 200 nM; 1:1 fit. Here is the method: (§1) Experiments were also conducted to determine the reactivity and dissociation constants (KA) of anti-ANGPTL7 antibodies with the rabbit ANGPTL7 protein. Binding experiments were performed on Octet HTX (ForteBio) in Rx PBS, pH 7.4, 0.1 mg/mi BSA, 0.05% Sodium Azide, and 0.02% Tween 20. Antibodies at a concentration of 50 nM were loaded on pre-hydrated AHC biosensors for 5 min. The loaded sensors were dipped into monovalent P66 (rabbit ANGPTL7-his) at a concentration of 200 nM for 5 min of association, followed by 10 min of dissociation. […] Responses (nm) at the end of association were also determined (Table 6).
In general terms: Biolayer interferometry detects binding as a change in optical thickness at a sensor tip.

Test [1] deals with T2, P60 (huANGPTL7-Fibrinogen-his) (human, UniProt O43827 129-343).
T2 construct: also called human ANGPTL7 fibrinogen domain; not shown: C-terminal short linker and His tag
T2 sequence: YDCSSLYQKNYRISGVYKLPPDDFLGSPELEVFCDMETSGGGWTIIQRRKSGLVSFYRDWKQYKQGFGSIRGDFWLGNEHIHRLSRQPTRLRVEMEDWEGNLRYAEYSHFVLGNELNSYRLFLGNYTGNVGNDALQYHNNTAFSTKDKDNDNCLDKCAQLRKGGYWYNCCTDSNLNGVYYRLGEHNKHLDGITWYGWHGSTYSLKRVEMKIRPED
The experiment in a line: BLI Octet HTX; IgG on AHC sensor; P60 at 200 nM; 1:1 fit. Here is the method: ANGPTL7 Antibody Kinetics. Experiments were conducted to determine the reactivity and dissociation constants (KD) of anti-ANGPTL7 antibodies with the human fibrinogen domain of the ANGPTL7 protein. Binding experiments were performed on Octet HTX (ForteBio) in 1×PBS, pH 7.4, 0.1 mg/ml BSA, 0.05% Sodium Azide, and 0.02 Tween 20. Antibodies at a concentration of 50 nM were loaded on pre-hydrated AHC biosensors for 5 min. The loaded sensors were dipped into monovalent P60 (huANGPTL7-Fibrinogen-his) at a concentration of 200 nM for 5 min association, followed by 10 min dissociation. […] Responses (nm) at the end of association were also determined (Table 2).

Test [2] deals with T3, muANGPTL7-his (R&D Systems) (mouse, UniProt Q8R1Q3 22-337, limits assumed).
T3 construct: Bought protein; also called mouse ANGPTL7 protein
T3 sequence (looked up): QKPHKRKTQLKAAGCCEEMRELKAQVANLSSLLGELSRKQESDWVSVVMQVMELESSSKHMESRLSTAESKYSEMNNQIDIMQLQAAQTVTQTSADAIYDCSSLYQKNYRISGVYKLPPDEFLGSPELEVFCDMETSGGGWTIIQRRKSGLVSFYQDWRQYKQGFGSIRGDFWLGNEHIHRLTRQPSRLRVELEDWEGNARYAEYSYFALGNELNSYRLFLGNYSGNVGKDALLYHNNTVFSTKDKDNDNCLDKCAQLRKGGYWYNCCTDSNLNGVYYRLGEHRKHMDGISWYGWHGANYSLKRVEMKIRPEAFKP
Nature of the test: BLI Octet HTX; IgG on AHC sensor; muANGPTL7-his at 200 nM; 1:1 fit. As for the experimental part:
as §1, with “(KD)” for “(KA)”, “mouse” for “rabbit”, “1×PBS,” for “Rx PBS,”, “[…].” for “min.”, “muANGPTL7-his (R&D Systems)” for “P66 (rabbit ANGPTL7-his)”, “5).” for “6).”

The target in test [3] is T4, Pext-01 (huANGTPL7-FLAG multimer) (human, UniProt O43827 27-346).
T4 construct: also called PExt-1; human wild type ANGPTL7 multimer; not shown: FLAG tag
T4 sequence: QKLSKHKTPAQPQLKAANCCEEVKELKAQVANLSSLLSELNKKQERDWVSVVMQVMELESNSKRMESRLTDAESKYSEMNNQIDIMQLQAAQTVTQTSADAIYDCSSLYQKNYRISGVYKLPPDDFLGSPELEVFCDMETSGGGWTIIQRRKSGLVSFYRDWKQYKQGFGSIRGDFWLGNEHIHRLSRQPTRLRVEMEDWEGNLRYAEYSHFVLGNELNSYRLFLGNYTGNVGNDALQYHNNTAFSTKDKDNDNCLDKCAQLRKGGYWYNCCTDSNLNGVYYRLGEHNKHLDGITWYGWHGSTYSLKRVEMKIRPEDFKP
The experiment in a line: BLI Octet HTX; IgG on AHC sensor; Pext-01 at 100 nM; 1:1 fit; apparent KD. Here is the method:
Experiments were also conducted to determine the reactivity and dissociation constants (KD) of anti-ANGPTL7 antibodies with the human ANGPTL7 multimer protein. Binding experiments were performed on Octet HTX (ForteBio) in 1×PBS, pH 7.4, 0.1 mg/ml BSA, 0.05% Sodium Azide, and 0.02% Tween 20. Antibodies at a concentration of 50 nM were loaded on pre-hydrated AHC biosensors for 5 mi. The loaded sensors were dipped into Pext-01 (huANGTPL7-FLAG) at a concentration of 100 nM for 5 min of association, followed by 10 min of dissociation. […] Responses (nm) at the end of association were also determined (Table 7).

In test [4] the target is T3, muANGPTL7-his (R&D Systems). Nature of the test: BLI Octet HTX; IgG on AHC sensor; muANGPTL7-his at 200 nM. Here is the method:
as §1, with “(KD)” for “(KA)”, “mouse” for “rabbit”, “1×PBS,” for “Rx PBS,”, “[…].” for “min.”, “muANGPTL7-his (R&D Systems)” for “P66 (rabbit ANGPTL7-his)”, “5).” for “6).”

B1: ATX-P-448 (antibody, human IgG1, kappa, N297A, V domains shown)
VH: QVQLVESGGGVVQPGRSLRLSCAASGFPFSSYGMHWVRQAPGKGLEWVAVMSYDGINGYYADSVKGRFTISRDNSKNTLYLQMNSLRAEDTAVYYCARLVYADDAFDIWGQGTTVTVSS
VL: EIVLTQSPATLSLSPGERATLSCRASQSVSSYLAWYQQKPGQAPRLLIYDASNRATGIPARFSGSGSGTDFTLTISSLEPEDFAVYYCQQRSNWPLTFGGGTKVEIKR
notes: Full chains (VH + hIgG1-Agly-Fc)
As to B1, the Kd was determined as 0.949 nM in the test with P66 (rabbit ANGPTL7-his) and 4.69 nM in test [1]. Also, the Response was found to be 0.75 nm with P66 (rabbit ANGPTL7-his), 0.69 nm in test [2] and 0.58 nm in test [3].

B2: ATX-P-432 (antibody, human IgG1, kappa, N297A, V domains shown)
VH: QVQLVQSGAEVKKPGASVKVSCKASGYTFTDYYIHWVRQAPGPGLEWLGWINPNTGATKYAQKFQGRVTMTRDTSISTAYMELSRLRSDDTAVYYCAREDNGNYGDVFDIWGQGTMVTVSS
VL: not shown
notes: as for B1
On to B2, for which the Response in test [2] worked out at 0.03 nm. Also, the binding result in test [4] is listed as “no binding (tested: 200 nM)”.

B3: ATX-P-440 (antibody, human IgG1, kappa, N297A, V domains shown)
VH: EVQLVESGGGVVRPGGSLRLSCAASGFTFDDYGMSWVRQAPGKGLEWVSTINWNGGNTGYADSVKGRFTISRDNAKNSLYLQMNSLRAEDTALYYCARDEGAAGLGYYFDYWGQGTLVTVSS
VL: DIQMTQSPSTLSASVGDRVTITCRASQSISSWLAWYQQKPGKAPKLLIYATSSLQSGVPSRFSGSGSGTDFTLTISSLQPEDFATYYCQQSYSTPITFGQGTRLEIKR
notes: as for B1
B3: the figures for the Kd (with P66 (rabbit ANGPTL7-his); in test [1]; in test [2]) were 6.27 nM, 55.8 nM and 55.3 nM, respectively. Besides, the Response with P66 (rabbit ANGPTL7-his) stood at 0.57 nm; in test [2], 0.21 nm; in test [3], 0.61 nm.

B4: ATX-P-439 (antibody, human IgG1, kappa, N297A, V domains shown)
VH: not shown
VL: DIQMTQSPSSVSASVGDRVTITCRASQGISSWLAWYQQKPGKAPKLLIYAASSLQSGVPSRFSGSGSGTDFTLTISSLQPEDFATYYCQQANSFPWTFGQGTKVDIKR
notes: as for B1
For B4, the results for the Kd (in the test with P66 (rabbit ANGPTL7-his); in test [3]) were 2.95 nM and 12.8 nM, respectively. Further, the Response worked out at 0.92 nm in the test with P66 (rabbit ANGPTL7-his), 0.28 nm in test [1], 0.53 nm in test [2] and 0.87 nm in test [3].

B5: ATX-P-442 (antibody, human IgG1, kappa, N297A, V domains shown)
VH: QITLKESGPTLVKPTQTLTLTCTFSGFSLSTSGVGVGWIRQPPGKALEWLALIYWNDDKRYSPSLKSRLTITKDTSKNLVVLTMTNMDPVDTATYYCARDYGDYWFFDLWGRGTPVTVSS
VL: DIQMTQSPSSLSASVGDRVTITCRASQGISSYLAWYQQKPGKAPKLLIYAASSLQSGVPSRFSGSGSGTDFTLTISSLQPEDFATYYCQQSFSTPLTFGGGTKLEIKR
notes: as for B1
Regarding B5, the Kd with P66 (rabbit ANGPTL7-his) worked out at 3.38 nM; in test [1], 4.62 nM. Also, the Response with P66 (rabbit ANGPTL7-his) was found to be 0.95 nm; in test [1], 0.69 nm; in test [2], 0.32 nm.

B6: ATX-P-427 (antibody, human IgG1, kappa, N297A, V domains shown)
VH: EVQLVESGGGVVRPGGSLRLSCAASGFSFDDYGMSWVRQVPGKGLEWVSGINWNGGSTGYADSVKGRFTISRDNAKNSLYLQMSSLRAEDTALYYCASYSGSFRDAFDIWGQGTMVTVSS
VL: AIQMTQSPSSLSASVGDRVTITCRASQGIRNDLGWYQQKPGKAPKLLIYAASSLQSGVPSRFSGSGSGTDFTLTISSLQPEDFATYYCLQDYNYPYTFGQGTKLEIKR
notes: as for B1
Regarding B6, the Kd with P66 (rabbit ANGPTL7-his) was found to be 3.21 nM; in test [1] it was 65.1 nM; in test [2], 10.3 nM. Besides, the Response was 0.93 nm with P66 (rabbit ANGPTL7-his), 0.5 nm in test [1], 0.48 nm in test [2] and 0.82 nm in test [3].

B7: ATX-P-425 (antibody, human IgG1, kappa, N297A, V domains shown)
VH: EVQLVESGGGLVKPGGSLRLSCAASGFTFSTYSMNWVRQAPGKGLEWVSSITSSSSYMFYADSVMGRFTISRDNAKNSLYLQMNSLRAEDTADYYCARDSNWGEAFDIWGQGTMVTVSS
VL: DIQMTQSPSSLSASVGDRVTITCRASQGIRIDLGWFQQKPGKAPKRLIYAASSLPSGVPSRFSGSGSGTEFTLTISSLQPEDFATYYCLQHNSYPWTFGQGTKVEIKR
notes: as for B1
Turning to B7, the Kd with P66 (rabbit ANGPTL7-his) worked out at 2.38 nM; in test [1], 305 nM. Further, the Response came out at 0.95 nm with P66 (rabbit ANGPTL7-his) and 0.83 nm in test [3].

B8: ATX-P-424 (antibody, human IgG1, kappa, N297A, V domains shown)
VH: EVQLVESGGGLVKPGGSLRLSCAASGFTFSSYSMNWVRQAPGKGLEWVSSITSSSYIFYADSLKGRFTISRDNAKNSLFLQMNSLRAEDTAVYYCARDSNWGEAFDIWGQGTMVTVSS
VL: DIQMTQSPSSLSASVGDRVTITCRASQGIRNDLGWYQQKPGKAPKRLIYAASSLPSGVPSRFSGSGSGTEFTLTISSLQPEDFAIYYCLQHNSYPWTFGQGTKVEIKR
notes: as for B1
Take B8: the Kd is 4.65 nM with P66 (rabbit ANGPTL7-his) and 106 nM in test [1]. Moreover, the Response in the test with P66 (rabbit ANGPTL7-his) was 0.93 nm; in test [2], 0.14 nm; in test [3], 0.76 nm. The binding result in test [4] is recorded as “no binding (tested: 200 nM)”.

B9: ATX-P-423 (antibody, human IgG1, kappa, N297A, V domains shown)
VH: QVQLVESGGGVVQPGRSLRLSCAASGFTFSSYGMHWVRQAPGKGLEWVSHITYDGSDKYYGDSVKGRFTISRDNSKNTLYLQMNSLRAEDTAVYYCAKDGYSSGWWYFDYWGQGTLVTVSS
VL: DIQMTQSPSSLSASVGDRVTITCRASQGIRNDLGWYQQKPGKAPKRLIYAASSLQSGVPSRFSGSGSGTEFALTISSLQPEDFATYYCLQHNSYPLTFGGGTKLEIKR
notes: as for B1
For B9, the Kd with P66 (rabbit ANGPTL7-his) is 6.69 nM; in test [1], 18.3 nM. Further, the Response with P66 (rabbit ANGPTL7-his) was 1.02 nm; in test [2], 0.14 nm; in test [3], 0.87 nm. Further, in test [4], the binding result was “no binding (tested: 200 nM)”.
